# Experimental data published in patent US20060167238, “Gene expression using metal ion dependent repressor/operator tandems” (ADVANCED MICROBIAL SOLUTIONS CORPORATION, published 2006).
# T1: DtxR (Corynebacterium diphtheriae, UniProt P0DJL7 P0DJL7:1-226)
# T1 sequence: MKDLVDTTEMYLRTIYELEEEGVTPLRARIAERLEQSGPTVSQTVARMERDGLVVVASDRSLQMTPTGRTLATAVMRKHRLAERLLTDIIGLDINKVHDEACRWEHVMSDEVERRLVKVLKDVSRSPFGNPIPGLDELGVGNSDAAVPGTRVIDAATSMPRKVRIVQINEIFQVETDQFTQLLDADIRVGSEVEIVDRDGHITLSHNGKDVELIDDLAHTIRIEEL
# T2: SirR (UniProt Q5HRA0 Q5HRA0:1-214)
# T2 sequence: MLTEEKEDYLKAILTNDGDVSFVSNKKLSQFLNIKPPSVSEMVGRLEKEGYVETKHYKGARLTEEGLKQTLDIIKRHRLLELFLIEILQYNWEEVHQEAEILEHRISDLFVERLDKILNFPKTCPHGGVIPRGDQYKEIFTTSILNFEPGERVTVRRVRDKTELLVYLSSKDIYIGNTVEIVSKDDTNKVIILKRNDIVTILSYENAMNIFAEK
# B1: efaABC promoter/operator (efa box) (dsDNA)
# DNA 1: TTTTCTTAAACTATCCCTTATACTGATTTTAAGGCAAACCTAAAAA
# DNA 2: TTTTTAGGTTTGCCTTAAAATCAGTATAAGGGATAGTTTAAGAAAA
# B2: tacP (dsDNA)
# DNA 1: CCCTGTTGACAATTAATCATCGGCTCGTATAATGTGTGGAATTGTGAGCGGATAACAATTTCA
# DNA 2: TGAAATTGTTATCCGCTCACAATTCCACACATTATACGAGCCGATGATTAATTGTCAACAGGG
# B3: tacPtoxO hybrid promoter/operator (dsDNA)
# DNA 1: CCCTGTTGACAATTAATCACCGGTACCTATAATTAGGATAGCTTTACCTAATTATTTTACACCC
# DNA 2: GGGTGTAAAATAATTAGGTAAAGCTATCCTAATTATAGGTACCGGTGATTAATTGTCAACAGGG
# B4: sitABC box (dsDNA)
# DNA 1: AACTTGACATGTTAAAACTTTAGAGTATATTATAAAATAAATTAGGTTAACCTAAACTTTTTATTAGGAGG
# DNA 2: CCTCCTAATAAAAAGTTTAGGTTAACCTAATTTATTTTATAATATACTCTAAAGTTTTAACATGTCAAGTT
# Legend:
# Experiment in all cases: EMSA
# EfaR = EfaR (Enterococcus faecalis, UniProt Q93CH5 Q93CH5:1-222); conditions: tags: untagged (pQN vector); label: 32P
# DtxR = target: T1, DtxR; conditions: chain copies: 4
# SirR = target: T2, SirR
Binder,binding result (DtxR),also measured
B1,,binding result (EfaR): binds
B2,no binding,
B3,binds,
B4,,binding result (SirR): binds
